Results published in publication PMC8495455, “Discovery of a transdermally deliverable pentapeptide for activating AdipoR1 to promote hair growth” (EMBO Molecular Medicine, 2021).
Where “and” joins values, the source holds several entries; their conditions need not be identical. Equal values may be shown once.

B1: APN: adiponectin protein, positive control (protein, UniProt Q15848 19-244, looked up)
Adiponectin: ETTTQGPGVLLPLPKGACTGWMAGIPGHPGHNGAPGRDGRDGTPGEKGEKGDPGLIGPKGDIGETGVPGAEGPRGFPGIQGRKGEPGEGAYVYRSAFSVGLETYVTIPNMPIRFTKIFYNQQNHYDGSTGKFHCNIPGLYYFAYHITVYMKDVKVSLFKKDKAMLFTYDQYQENNVDQASGSVLLHLEVGDQVWLQVYGEGERNGLYADNDNDSTFTGFLLYHDTN

Assays:
C57BL/6 (WT) mice [1] = assay: Mouse hair cycle modulation, histology and anagen induction score, WT mice; type: in vivo
Description: (§1) First, we topically applied P5 and minoxidil as a positive control (Messenger & Rundegren, [2004]) on wildtype (WT) mouse. […] Overall, the hair cycle score was higher in the P5‐treated mice than vehicle‐treated mice (Fig 4B). […] Collectively, P5 induces anagen hair cycle in vivo.
(§2) Paraffin‐embedded mouse cutaneous back tissue was sectioned (4 μm thickness) and stained with hematoxylin and eosin. For IF staining, human ORS cells cultured in FiTC‐P5, sectioned paraffin‐embedded human HFs (7 μm thickness), and sectioned paraffin‐embedded mouse cutaneous dorsal tissue or human skin tissue (5 μm thickness) were incubated at 4°C overnight with the following primary antibodies diluted in the diluent reagent (Invitrogen): phospho‐AMPK (#2535, 1:100; Cell Signaling), Ki‐67 (#M7240, 1:200; Dako), versican (#ab177480, 1:200; Abcam), or AdipoR1 antibody (#ab126611, 1:200; Abcam). After three washes with PBS, the slides were incubated with the secondary Alexa Fluor 488‐labeled anti‐mouse or rabbit IgG antibody (#ab150077, #ab150113, 1:200; Invitrogen), or Alexa Fluor 594‐labeled anti‐rabbit IgG antibody (#a11012, 1:200; Invitrogen) at 25°C for 1 h. Nuclei were counterstained with 4′,6‐diamidino‐2‐phenylindole (DAPI; #D1306, 1:1,000; Invitrogen). Microscopic observations were performed with a Nikon Eclipse Ci‐L microscope (Nikon). IF intensity was observed and recorded with a Nikon Eclipse Ni‐E fluorescence microscope (Nikon).
(§3) For the hair cycle modulation experiment, Adipoq ^−/− (stock #008195; JAX) (Ma et al, [2002]), Adipor1 ^−/− (Yamauchi et al, [2007]; Okada‐Iwabu et al, [2013]), or C57BL/6 (KOATECH) female mice was used (Müller‐Röver et al, [2001]). They were housed (up to four animals per cage; 23 ± 2°C, 8:00–20:00, 12 h/12 h light/dark cycle). Mice were fed a standard chow diet and provided food and water ad libitum. Mice were randomly allocated and shaved dorsally at 7.5 weeks of age. Only mice in telogen were included for the further experiments (Müller‐Röver et al, [2001]). From 8 weeks of age, the shaved dorsal area was treated with vehicle control (ethanol and polyethylene glycol, 30% and 70% v/v), P5 (0.1 mM), or minoxidil (3%) every day. The mouse hair growth score (a value from 0 to 100 based on the skin pigmentation and hair shaft density) was monitored and documented at designated days with the experimenters being blind to the conditions, following a previous study (Chai et al, [2019]). A higher score corresponds to a transition from telogen to anagen. On day 35, we obtained dorsal cutaneous tissue for histological analysis: anagen induction scores (calculated using an assigned arbitrary score; telogen = 1, anagen I–VI = 2–7) (Müller‐Röver et al, [2001]).

C57BL/6 (WT) mice [2] = assay: Mouse hair cycle modulation, hair cycle score, WT mice; type: in vivo; conditions: topical
Description: as §1, §3

human scalp HFs = conditions: ref Won et al, [2012]; cited from earlier work
Description: However, it is not well understood about the underlying action mechanism of APN on hair growth promotion and how to utilize this endogenous protein as clinically applicable drug forms (Otvos, [2019]).

[3] = test system: AMPK phosphorylation in DP cells; assay: Western blot p-AMPK, DP cells; type: cell-based, human; conditions: P5 0 - 50 μM, APN 2.5 μg/ml
Description: (§4) Following the confirmation of the molecular interaction between AdipoR1 and P5, we evaluated the activation of the intracellular signaling pathway by P5. We investigated whether APN treatment on ORS and DP cells could activate AMPK or ERK signaling pathways, which are previously known to be downstream effectors of AdipoR1 (Mao et al, [2006]; Deepa & Dong, [2009]; Shibata et al, [2012]). […] Next, for determination of whether both P5 and APN mediates the phosphorylation of AMPK through AdipoR1 in ORS and DP cells, the cells were transfected with AdipoR1 siRNA (Appendix Fig S1). […] Collectively, P5 activates AMPK signaling pathway through AdipoR1 in ORS and DP cells in vitro.
(§5) Human ORS and DP cells or skin tissue were lysed (RIPA lysis buffer; #20‐188; Merck Millipore). The obtained protein was then separated by 8% SDS–PAGE and transferred to a polyvinylidene fluoride membrane (Amersham). The protein transferred membranes were incubated overnight with the specific antibodies. […] Antibody‐antigen complexes detected by enhanced chemiluminescent substrate (Thermo Fisher) were captured and quantified by Amersham imager 680 systems (GE Healthcare).

[4] = test system: ERK phosphorylation in ORS cells; assay: Western blot p-ERK1/2, ORS cells; type: cell-based, human
Description: as §4, §5

[5] = test system: AMPK phosphorylation through AdipoR1 in ORS cells; assay: Western blot p-AMPK in AdipoR1 siRNA-transfected ORS cells; type: cell-based, human
Description: as §4
(§6) All transfections were performed using Lipofectamine 2000 following the manufacturer’s instructions (#11668019; Thermo Fisher). Human DP and ORS cells were cultured without antibiotics until reaching 50% confluency. AdipoR1 or scrambled siRNA (Bioneer) was used. The culture medium was changed 6 h after transfection, and the cells were incubated for another 24 h before subsequent analyses.
(§7) Human ORS and DP cells or skin tissue were lysed (RIPA lysis buffer; #20‐188; Merck Millipore). […] Antibody‐antigen complexes detected by enhanced chemiluminescent substrate (Thermo Fisher) were captured and quantified by Amersham imager 680 systems (GE Healthcare).

[6] = test system: AMPK phosphorylation in ORS cells; assay: Western blot p-AMPK, ORS cells; type: cell-based, human; conditions: P5 0 - 50 μM, APN 2.5 μg/ml
Description: as §4, §5

[7] = test system: AMPK phosphorylation through AdipoR1 in DP cells; assay: Western blot p-AMPK in AdipoR1 siRNA-transfected DP cells; type: cell-based, human
Description: as §4, §6, §7

[8] = test system: ERK phosphorylation in DP cells; assay: Western blot p-ERK1/2, DP cells; type: cell-based, human
Description: as §4, §5

[9] = test system: matrix cells of human HF bulbs; assay: IF staining Ki-67 of ex vivo cultured HF bulb; type: cell-based; conditions: APN 10μg/ml, ex vivo cultured HF bulb; individual HFs, n = 8
Description: We next investigated whether P5 can reproduce the effects of APN on hair growth promotion ex vivo (Won et al, [2012]) using ex vivo human HF organ culture model. […] The Ki‐67‐positive cell portion of the matrix area in the P5‐treated HFs was higher than that in the vehicle‐treated group (Fig 3E).
as §2

Row | Molecule | Histological examination of HFs (C57BL/6 (WT) mice [1]; H&E) | Anagen induction scores vs vehicle (C57BL/6 (WT) mice [1]; One-way ANOVA with Tukey's test) | Gross morphology of dorsum (C57BL/6 (WT) mice [2]; day 14) | Gross morphology of dorsum (C57BL/6 (WT) mice [2]; day 35) | Hair growth ex vivo (human scalp HFs) | Phosphorylation of AMPK, DP cells [3] | Phosphorylation of ERK, ORS cells [4] | p-AMPK intensity after AdipoR1 siRNA transfection, ORS cells [5] | Phosphorylation of AMPK, ORS cells [6] | p-AMPK intensity after AdipoR1 siRNA transfection, DP cells [7] | Phosphorylation of ERK, DP cells [8] | Numbers of Ki-67-positive cells normalized to DAPI-stained cells [9]
1 | Nc1cc(N2CCCCC2)nc(N)[n+]1[O-] [minoxidil, reference compound] | anagen HFs were noticeable | significantly higher | obvious pigmentation and hair | manifested a black hair coat |  |  |  |  |  |  |  | 
2 | B1 |  |  |  |  | promotes hair growth ex vivo effectively | phosphorylation of AMPK was observed | no effect on the phosphorylation of ERK | intensity was reduced | phosphorylation of AMPK was observed | intensity was reduced | no effect on the phosphorylation of ERK | 0.29 and 0.31 and 0.23 and 0.25 and 0.22 and 0.21 and 0.35 and 0.28
